Experimental data: patent publication US20110287948A1, “MEASUREMENT OF MATERIAL PROPERTIES AND RELATED METHODS AND COMPOSITIONS BASED ON CYTOADHERENCE” (Massachusetts Institute of Technology, priority 2010, published 2011)

Tests used:
[1] = test system: Acute promyelocytic leukemia cells; details: cells induced to differentiate down the neutrophil lineage for three days; cited from earlier work
WT T cells [2] = assay: FACS analysis of phenotype (CD62L/CD44) of WT T cells induced to migrate by CCL19; assay type: cell-based, mouse (Balb/c); details: WT cells that migrated after CCL19 exposure
Description: FIG. 68 depicts results of a FACS analysis of phenotype of naïve WT T cells induced to migrate by the chemokine CCL19. T cells were first gated on PI to exclude dead cells. The cell samples tested were naïve T cells not exposed to CCL 19 (A, D), cells that remained in the insert after CCL19 exposure (100 ng/mL) for seven hours (B, E), and cells that migrated across the insert membrane after the same chemokine treatment (C, F).
Cells from the peripheral lymph nodes and the spleen of Balb/c mice and WAS−/− mice on Balb/c background were pooled and enriched using the EasySep Mouse CD8+ T Cell Enrichment Kit from STEMCELL Technologies (British Columbia, Canada). Enrichment was confirmed using fluorescence-activated cell sorting (FACS) by staining the cells with FITC/anti-Thy1.2 and PE/anti-CD8a antibodies (Abs). The memory T cell population was assessed by evaluating the expression of CD44 and CD62L via FACS. T cells in an activation medium with 100 units/mL IL-2 and 1% anti-CD28 Ab were activated by plate-bound anti-CD3 Abs for 4 day at 37° C. The activation medium included RPMI with 10% FBS, 10 mM HEPES (1M), 1% NEAA, 1% sodium pyruvate (100 mM), […] (3-mercaptoethanol, 4 mM L-glutamine, and 100 μg/mL Pen/Strep. Cell activation was verified via FACS measurement of CD25. […]

WAS−/− T cells [3] = assay: Micropipette aspiration of CCL19-stimulated migratory WAS-/- T cells; assay type: cell-based, mouse (WAS−/− on Balb/c background); details: naïve WAS−/− T cells that migrated in response to CCL19
Description: (§1) Micropipettes made using a micropipette puller were trimmed to 2.5-3 or 4.5-5 μm inner diameter for testing naïve and activated T cells. MPA glass chambers consisted of a 24 mm×60 mm microscope coverslip bottom, a U-shaped parafilm spacer, and a 22 mm×22 mm microscope coverslip top. The assembly was baked for two hours at 80° C. to ensure good adhesion between the components.
(§2) Enriched WT and WAS−/− T cells in DMEM with 1% BSA and 0.1% Pen/Strep were induced to migrate through polycarbonate Transwell inserts (Costar, Cambridge, Mass.) with 5-μm pores in a 24-well plate toward a CCL19 chemokine source (R&D Systems, Minneapolis, Minn.). Inserts contained 5×10^5 cells in 100 μL of medium, and wells contained 1 mL of medium with either no CCL19 or 100 ng/mL of CCL19. Cells were allowed to migrate for ˜7 hours at 37° C., and those that crossed the membrane were collected and used for MPA studies.
3×10^5 cells in 100 μL RPMI with 10% FBS and 1% HEPES was stained with 10 μL trypan blue. The mixture was added to 600 μL of either the RPMI medium or the T cell activation medium with IL-2 for naïve and activated T cell testing. Migratory T cells were tested in the medium used for migration. The MPA device was based on the design of Hochmuth et al (18). […] The cell movement in the micropipette was recorded with a CCD camera. […]

WT T cells [4] = assay: Micropipette aspiration of CCL19-stimulated migratory WT T cells; assay type: cell-based, mouse (Balb/c)
Description: as §1, §2
3×10^5 cells in 100 μL RPMI with 10% FBS and 1% HEPES was stained with 10 μL trypan blue. The mixture was added to 600 μL of either the RPMI medium or the T cell activation medium with IL-2 for naïve and activated T cell testing. Migratory T cells were tested in the medium used for migration. The MPA device was based on the design of Hochmuth et al (18). The aspiration rate and volume were 36 mL/hr and 2 mL, corresponding to a total pressure of ˜400 Pa. The cell movement in the micropipette was recorded with a CCD camera. Aspirations were performed at approximately room temperature.
MPA data were fitting using the half-space model (77) described by the expressions:
where E is the cell modulus, L is the length from the micropipette opening to the cell leading edge, Δp is the pressure differential at a particular L, ri and ro are the inner and outer […] of the micropipette, and φ is the wall function that is approximately […]. The ImageJ software was used to manually track the change in L. By plotting Δp against ri/L and finding the best linear fit (minimal total error) a modulus could be derived from the slope of the line. […]

WAS−/− T cells [5] = assay: In vitro Transwell cell migration toward CCL19, WAS-/- T cells; assay type: cell-based, mouse (WAS−/− on Balb/c background); details: seven hours of exposure to CCL19 (100 ng/mL), 5-μm pore inserts
Description: Cells from the peripheral lymph nodes and the spleen of Balb/c mice and WAS−/− mice on Balb/c background were pooled and enriched using the EasySep Mouse CD8+ T Cell Enrichment Kit from STEMCELL Technologies (British Columbia, Canada). Enrichment was confirmed using fluorescence-activated cell sorting (FACS) by staining the cells with FITC/anti-Thy1.2 and PE/anti-CD8a antibodies (Abs). The memory T cell population was assessed by evaluating the expression of CD44 and CD62L via FACS. T cells in an activation medium with 100 units/mL IL-2 and 1% anti-CD28 Ab were activated by plate-bound anti-CD3 Abs for 4 day at 37° C. The activation medium included RPMI with 10% FBS, 10 mM HEPES (1M), 1% NEAA, 1% sodium pyruvate (100 mM), […] (3-mercaptoethanol, 4 mM L-glutamine, and 100 μg/mL Pen/Strep. Cell activation was verified via FACS measurement of CD25. Enriched WT and WAS−/− T cells in DMEM with 1% BSA and 0.1% Pen/Strep were induced to migrate through polycarbonate Transwell inserts (Costar, Cambridge, Mass.) with 5-μm pores in a 24-well plate toward a CCL19 chemokine source (R&D Systems, Minneapolis, Minn.). Inserts contained 5×10^5 cells in 100 μL of medium, and wells contained 1 mL of medium with either no CCL19 or 100 ng/mL of CCL19. Cells were allowed to migrate for ˜7 hours at 37° C., and those that crossed the membrane were collected and used for MPA studies.

CC1=C(/C=C/C(C)=C/C=C/C(C)=C/C(=O)O)C(C)(C)CCC1 [all-trans retinoic acid]
more compliant than the control (creep compliance) [1]: 45%

B1: CCL19: chemokine CCL19 (R&D Systems) used as chemoattractant for T cells (protein, UniProt Q99731 22-98, looked up)
C-C motif chemokine 19: GTNDAEDCCLSVTQKPIPGYIVRNFHYLLIKDGCRVPAVVFTTLRGRQLCAPPDQPWVERIIQRLQRTSAKMKRRSS
migrating cells stained CD62L high and CD44 low (naïve phenotype) (WT T cells [2]): ~90%
apparent Young's modulus (mean+/−SD) (WAS−/− T cells [3]): 152+/−102 Pa
stiffness compared to activated cells (WT T cells [4]; migratory WT cells vs activated WT T cells): about 1.4 times
modulus reduction from the value measured in the absence of CCL19 (WT T cells [4]; migratory WT cells vs untreated naïve WT cells): more than 2 times
apparent Young's modulus (mean+/−SD) (WT T cells [4]; naïve WT T cells that migrated in response to CCL19): 128+/−33 Pa
cells migrated (WAS−/− T cells [5]): ~6.4%
